Data: article PMC5595889

Target: mouse importin α1 lacking the N-terminal importin-β-binding domain (ΔIBB-importin α1) (mouse)
Experiment: ITC

influenza NLS1 peptide (1-…-13)
Kd: 4.9 µM
